From patent US20240174992A1, “SPLIT MODIFIED DEHALOGENASE VARIANTS” (Promega Corporation, priority 2022, published 2024)

Key:
Test in all cases: cell-based or functional assay
[1] = biological target: spHT 157 C-terminal fragment [158-297] fused to FRB or FKBP
[2] = biological target: spHT 180 C-terminal fragment [181-297] fused to FRB or FKBP
[3] = biological target: spHT 80 C-terminal fragment [81-297] fused to FRB or FKBP
[4] = biological target: spHT 145 C-terminal fragment [146-297] fused to FRB or FKBP
[5] = biological target: spHT 19 C-terminal fragment [20-297] fused to FRB or FKBP
[6] = biological target: spHT 133 C-terminal fragment [134-297] fused to FRB or FKBP
[7] = biological target: spHT 195 C-terminal fragment [196-297] fused to FRB or FKBP

B1: spHT 157 N-terminal fragment [1-157] fused to FRB or FKBP (protein, part only; not given: FRB or FKBP partner, orientation, part only)
chain, part: MAEIGTGFPFDPHYVEVLGERMHYVDVGPRDGTPVLFLHGNPTSSYVWRNIIPHVAPTHRCIAPDLIGMGKSDKPDLGYFFDDHVRFMDAFIEALGLEEVVLVIHDWGSALGFHWAKRNPERVKGIAFMEFIRPIPTWDEWPEFARETFQAFRTTDV
Q: Which fold increase in JF646 fluorescence with 50 nM rapamycin (E. coli lysates) [1] does the source give for B1 here?
A: > 2 fold

B2: spHT 180 N-terminal fragment [1-180] fused to FRB or FKBP (protein, part only; not given: FRB or FKBP partner, orientation, part only)
chain, part: MAEIGTGFPFDPHYVEVLGERMHYVDVGPRDGTPVLFLHGNPTSSYVWRNIIPHVAPTHRCIAPDLIGMGKSDKPDLGYFFDDHVRFMDAFIEALGLEEVVLVIHDWGSALGFHWAKRNPERVKGIAFMEFIRPIPTWDEWPEFARETFQAFRTTDVGRKLIIDQNVFIEGTLPMGVVRP
Q: With B2 as the binder, how does the fold increase in JF646 fluorescence with 50 nM rapamycin (E. coli lysates) [2] read?
A: > 2 fold

B3: spHT 80 N-terminal fragment [1-80] fused to FRB or FKBP (protein, part only; not given: FRB or FKBP partner, orientation, part only)
chain, part: MAEIGTGFPFDPHYVEVLGERMHYVDVGPRDGTPVLFLHGNPTSSYVWRNIIPHVAPTHRCIAPDLIGMGKSDKPDLGYF
Q: How did the fold increase in JF646 fluorescence with 50 nM rapamycin (E. coli lysates) [3] turn out when B3 was run?
A: > 2 fold

B4: spHT 145 N-terminal fragment [1-145] fused to FRB or FKBP (protein, part only; not given: FRB or FKBP partner, orientation, part only)
chain, part: MAEIGTGFPFDPHYVEVLGERMHYVDVGPRDGTPVLFLHGNPTSSYVWRNIIPHVAPTHRCIAPDLIGMGKSDKPDLGYFFDDHVRFMDAFIEALGLEEVVLVIHDWGSALGFHWAKRNPERVKGIAFMEFIRPIPTWDEWPEFA
Q: Which fold increase in JF646 fluorescence with 50 nM rapamycin (E. coli lysates) [4] does the source give for B4 here?
A: > 2 fold

Q: How did the increase in JF646 fluorogenic signal at a N:C fragment ratio of 10 [5] turn out when MAEIGTGFPFDPHYVEVLG (peptide, part only; not given: FRB or FKBP partner, orientation, part only) [spHT 19 N-terminal fragment [1-19] fused to FRB or FKBP] was run?
A: 25%

Q: What about the increase in TMR labeling efficiency on raising the N:C fragment ratio from 1.25 to 10 [5] of the same binder?
A: > 100%

B5: spHT 133 N-terminal fragment [1-133] fused to FRB or FKBP (protein, part only; not given: FRB or FKBP partner, orientation, part only)
chain, part: MAEIGTGFPFDPHYVEVLGERMHYVDVGPRDGTPVLFLHGNPTSSYVWRNIIPHVAPTHRCIAPDLIGMGKSDKPDLGYFFDDHVRFMDAFIEALGLEEVVLVIHDWGSALGFHWAKRNPERVKGIAFMEFIR
Q: With B5 as the binder, how does the fold increase in JF646 fluorescence with 50 nM rapamycin (E. coli lysates) [6] read?
A: > 2 fold

B6: spHT 195 N-terminal fragment [1-195] fused to FRB or FKBP (protein, part only; not given: FRB or FKBP partner, orientation, part only)
chain, part: MAEIGTGFPFDPHYVEVLGERMHYVDVGPRDGTPVLFLHGNPTSSYVWRNIIPHVAPTHRCIAPDLIGMGKSDKPDLGYFFDDHVRFMDAFIEALGLEEVVLVIHDWGSALGFHWAKRNPERVKGIAFMEFIRPIPTWDEWPEFARETFQAFRTTDVGRKLIIDQNVFIEGTLPMGVVRPLTEVEMDHYREPFLN
Q: How did the fold increase in JF646 fluorescence with 50 nM rapamycin (E. coli lysates) [7] turn out when B6 was run?
A: > 2 fold
